# Measurements reported in PMC8058561, “Activity-dependent conformational transitions of the insulin receptor–related receptor” (The Journal of Biological Chemistry, 2021).
# B1: insulin receptor-related receptor (full-length human IRR with a C-terminal 6xHIS tag) (receptor)
# chain 1: VEVCPSLDIRSEVAELRQLENCSVVEGHLQILLMFTATGEDFRGLSFPRLTQVTDYLLLFRVYGLESLRDLFPNLAVIRGTRLFLGYALVIFEMPHLRDVALPALGAVLRGAVRVEKNQELCHLSTIDWGLLQPAPGANHIVGNKLGEECADVCPGVLGAAGEPCAKTTFSGHTDYRCWTSSHCQRVCPCPHGMACTARGECCHTECLGGCSQPEDPRACVACRHLYFQGACLWACPPGTYQYESWRCVTAERCASLHSVPGRASTFGIHQGSCLAQCPSGFTRNSSSIFCHKCEGLCPKECKVGTKTIDSIQAAQDLVGCTHVEGSLILNLRQGYNLEPQLQHSLGLVETITGFLKIKHSFALVSLGFFKNLKLIRGDAMVDGNYTLYVLDNQNLQQLGSWVAAGLTIPVGKIYFAFNPRLCLEHIYRLEEVTGTRGRQNKAEINPRTNGDRAACQTRTLRFVSNVTEADRILLRWERYEPLEARDLLSFIVYYKESPFQNATEHVGPDACGTQSWNLLDVELPLSRTQEPGVTLASLKPWTQYAVFVRAITLTTEEDSPHQGAQSPIVYLRTLPAAPTVPQDVISTSNSSSHLLVRWKPPTQRNGNLTYYLVLWQRLAEDGDLYLNDYCHRGLRLPTSNNDPRFDGEDGDPEAEMESDCCPCQHPPPGQVLPPLEAQEASFQKKFENFLHNAITIPISPWKVTSINKSPQRDSG
# chain 2: not shown
# notes: alpha subunit (about 100 kDa) of human insulin receptor-related receptor, cut from the single-chain precursor (about 170 kDa); beta subunit (about 70 kDa) of human insulin receptor-related receptor, cut from the single-chain precursor (about 170 kDa); holds the transmembrane segment and the tyrosine kinase domain; Some uncleaved proreceptor (170 kDa) was also seen on the blot; The receptor was …
# Biological target: the molecule itself
# Assay: atomic force microscopy; purified full-length IRR in DDM micelles deposited on mica; tapping mode in 150 mM NaCl, 20 mM sodium phosphate, 5% glycerol, pH 7.0 or pH 9.0; single receptor-micelle complexes sorted by the shape of the ectodomain
protein,measurement,value
B1,binding result,binds
